Reference: patent US20040265337A1, “Method of generating an immune response and compositions used for same” (priority 2002, published 2004)

B1: alpha 1-antichymotrypsin: serpin, inhibitor of defensins (protein, UniProt P01011 24-423, looked up)
Alpha-1-antichymotrypsin: HPNSPLDEENLTQENQDRGTHVDLGLASANVDFAFSLYKQLVLKAPDKNVIFSPLSISTALAFLSLGAHNTTLTEILKGLKFNLTETSEAEIHQSFQHLLRTLNQSSDELQLSMGNAMFVKEQLSLLDRFTEDAKRLYGSEAFATDFQDSAAAKKLINDYVKNGTRGKITDLIKDLDSQTMMVLVNYIFFKAKWEMPFDPQDTHQSRFYLSKKKWVMVPMMSLHHLTIPYFRDEELSCTVVELKYTGNASALFILPDQDKMEEVEAMLLPETLKRWRDSLEFREIGELYLPKFSISRDYNLNDILLQLGIEEAFTSKADLSGITGARNLAVSQVVHKAVLDVFEEGTEASAATAVKITLLSALVETRTIVRFNRPFLMIIVPTDTQNIFFMSKVTNPKQA
B2: HD-5: human defensin 5, anti-microbial peptide of the human intestine (protein, UniProt Q01523 20-94, looked up)
Defensin alpha 5: ESLQERADEATTQKQSGEDNQDLAISFAGNGLSALRTSGSQARATCYCRTGRCATRESLSGVCEISGRLYRLCCR
modifications: Defensin-5
notes: human defensin 5, anti-microbial peptide of the human intestine

Experiments:
HD-5 = biological target: T1, HD-5 (Homo sapiens, UniProt Q01523); conditions: in vitro, against Salmonella enterica serovar Typhimurium; cited from earlier work
T1 sequence (Q01523 63-94 limits assumed): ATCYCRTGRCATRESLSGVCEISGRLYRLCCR

human CEA antigen = experiment: Cytotoxicity (CTL) assays in HD-5 transgenic mice immunized orally with the Salmonella based CEA-DNA vaccine; format: in vivo; conditions: oral immunization, defensin inhibitor co-formulated or expressed by the strain
Source text: HD-5 inhibitors enhance efficacy of whole organism vaccines such as Salmonella enterica serovar Typhimurium. Human defensin 5 (HD-5), is the major defensin in humans which is bactericidal for Salmonella typhimurium infection. HD-5 transgenic mice are dramatically more resistant to Salmonella typhimurium infection providing a model system to study effectiveness of Salmonella typhimurium as a platform vaccine carrier in the presence of inhibitors of HD-5. See Gosh D. et al., Nature Immunology, 3:583 (2002); Zasloff M, Nature Immunology, 3:508 (2002). HD-5 inhibitors increase efficacy of the Salmonella enterica based human CEA-DNA vaccine. Human CEA (carcinoembryonic antigen) is a tumor antigen for which protective immunity can be induced by vaccination with a live attenuated Salmonella enterica vaccine. See Xiang R. et al., Clinical Cancer Research, 7: 856s (2001). Efficacy of the vaccine is measured by conducting cytotoxicity (CTL) assays in HD-5 transgenic mice to measure immune response to the human CEA antigen. CTL assays are conducted in mice immunized orally with various doses of the vaccine (RemeStim-CEA), with or without addition of the HD-5 inhibitor. […]

trypsin = conditions: in vitro; cited from earlier work
[1] = test system: Salmonella enterica serovar Typhimurium; conditions: cited from earlier work

Molecule	inhibition of the bactericidal activity of the mature, active defensin (HD-5)	other results
Dermatan sulfate [reference compound]	inactivates alpha-defensin anti-bacterial activity	effectiveness of the Salmonella based CEA-DNA vaccine as measured by cytotoxicity assays (human CEA antigen): enhances the effectiveness
alpha 2-macroglobulin: protein inhibitor of defensins	inhibit the bactericidal activity	
N=C(N)c1ccc(CS(=O)(=O)F)cc1 [APMSF, 4-amidinophelylmethane sulfonyl-fluoride]		inhibition of maturation of pro-HD-5 to mature HD-5 by trypsin (trypsin): inhibit maturation of pro-HD-5 to mature HD-5
Pro-piece of HD-5: pro-domain of human HD-5 (amino acids 20-62), HD-5 peptide inhibitor (ESLQERADEATTQKQSGEDNQDLAISFAGNGLSALRTSGSQAR)	inhibit the bactericidal activity	
alpha 1-proteinase inhibitor: serpin, inhibitor of defensins	inhibit the bactericidal activity	
B1	inhibit the bactericidal activity	
B2		bactericidal activity against Salmonella Typhimurium [1]: bactericidal
